According to article PMC3313673:

Target: extracellular domain of quail MuSK (amino acid residues 1 to 463), His-tagged (quail)
Test: ELISA

signal of the plate assay (read at 415 nm): 0.45
B1: biotinylated recombinant biglycan (non-glycanated form) (ligand)
chain: DEEASGADTSGVLDPDSVTPTYSAMCPFGCHCHLRVVQCSDLGLKSVPKEISPDTTLLDLQNNDISELRKDDFKGLQHLYALVLVNNKISKIHEKAFSPLRKLQKLYISKNHLVEIPPNLPSSLVELRIHDNRIRKVPKGVFSGLRNMNCIEMGGNPLENSGFEPGAFDGLKLNYLRISEAKLTGIPKDLPETLNELHLDHNKIQAIELEDLLRYSKLYRLGLGHNQIRMIENGSLSFLPTLRELHLDNNKLARVPSGLPDLKLLQVVYLHSNNITKVGVNDFCPMGFGVKRAYYNGISLFNNPVPYWEVQPATFRCVTDRLAIQFGNYKK
modifications: biotin (site not stated)
